For one substance, Km results are on record in article PMC5526573, “Bacillus sp. JR3 esterase LipJ: A new mesophilic enzyme showing traces of a thermophilic past” (PLoS ONE, 2017).

This series deals with CCCC(=O)Oc1ccc([N+](=O)[O-])cc1. Briefly: purified protein. Particulars: 37 °C, semi-purified His-tagged enzyme, methods state optimal assay conditions (pH 7).

One may read the Km as the substrate concentration at which the rate is half of its maximum. Consider LipJ (Bacillus sp. (in: firmicutes)), for which the Km is given as 1.7 mM.
